Measured values from patent US20190203174A1.

Tests used:
[1] = biological target: FVIII-2191-2220 presented on HLA-DR1 by irradiated DR1-PBMCs (human); assay: cell-based or functional assay
[2] = biological target: PE-labeled DR1 tetramers loaded with FVIII-2191-2220 (human) (UniProt P01903); assay: flow cytometry, DR1 tetramer staining of transduced CD4 T cells
[3] = biological target: PE-labeled DR1 tetramers loaded with FVIII-2191-2220 (human) (UniProt P01903); assay: flow cytometry, DR1 tetramer staining of transduced naïve CD4 T cells
[4] = biological target: PE-labeled DR1 tetramers loaded with FVIII-2191-2220 (human) (UniProt P01903); assay: flow cytometry, PE-labeled DR1 tetramer staining of peptide-expanded transduced T effectors

- expansion of GFP cells against culture with pOVA [1]: 50 fold
- proliferation of GFP cells (dye dilution, 4 days) [1]: 100%
- proportion of GFP cells after culture with FVIII-2191-2220 [1]: 61 to 81%
- fold tetramer staining intensity over non-specific tetramer staining [2]: > 10 fold
- percent tetramer+ of the total CD4 population [3]: 0.2%
- percent tetramer+ of the transduced cells [3]: < 5%
- percent tetramer+ [4]: 24%
B1: FVIII C2-specific human T cell receptor (TCR17195) (TCR)
chain: RQVARVIVFLTLSTLSLAKTTQPISMDSYEGQEVNITCSHNNIATNDYITWYQQFPSQGPRFIIQGYKTKVTNEVASLFIPADRKSSTLSLPRVSLSDTAVYYCLVGDAPNSGNTPLVFGKGTRLSVIANIQNPDPAVYQLRDSKSSDKSVCLFTDFDSQTNVSQSKDSDVYITDKTVLDMRSMDFKSNSAVAWSNKSDFACANAFNNSIIPEDTFFPSPESSCDVKLVEKSFETDTNLNFQNLSVIGFRILLLKVAGFNLLMTLRLWSSRAKRGSGATNFSLLKQAGDVEENPGPMLLLLLLLGPGSGLGAVVSQHPSRVICKSGTSVKIECRSLDFQATTMFWYRQFPKKSLMLMATSNEGSKATYEQGVEKDKFLINHASLTLSTLTVTSAQPEDSSFYICSAHTRANYGYTFGSGTRLTVVEDLNKVFPPEVAVFEPSEAEISHTQKATLVCLATGFFPDHVELSWWVNGKEVHSGVSTDPQPLKEQPALNDSRYCLSSRLRVSATFWQNPRNHFRCQVQFYGLSENDEWTQDRAKPVTQIVSAEAWGRADCGFTSVSYQQGVLSATILYEILLGKATLYAVLVSALVLMAMVKRKDF
